Here are results for one protein from publication doi:10.1101/2021.07.03.450947, “The pore conformation of lymphocyte perforin” (bioRxiv, 2021).

The data set deals with the molecule itself. Put plainly: cryo-electron tomography; prepores on liposomes (PC, cholesterol, biotinyl PE 6:3:1) held on streptavidin grids; 20 mM HEPES pH 7.5, 150 mM NaCl, 5 mM CaCl2; 5-10 min at 37°C; protein to lipid about 1:10,000.

B1: TMH1-lock mutant of perforin (A144C-W373C) (natural protein, mouse, UniProt P10820 21-554, looked up)
chain: PCYTATRSECKQKHKFVPGVWMAGEGMDVTTLRRSGSFPVNTQRFLRPDRTCTLCKNSLMRDATQRLPVAITHWRPHSSHCQRNVAAAKVHSTEGVAREAAANINNDWRVGLDVNPRPEANMRCSVAGSHSKVANFAAEKTYQDQYNFNSDTVECRMYSFRLVQKPPLHLDFKKALRALPRNFNSSTEHAYHRLISSYGTHFITAVDLGGRISVLTALRTCQLTLNGLTADEVGDCLNVEAQVSIGAQASVSSEYKACEEKKKQHKMATSFHQTYRERHVEVLGGPLDSTHDLLFGNQATPEQFSTWTASLPSNPGLVDYSLEPLHTLLEEQNPKREALRQAISHYIMSRARCQNCSRPCRSGQHKSSHDSCQCECQDSKVTNQDCCPRQRGLAHLVVSNFRAEHLWGDYTTATDAYLKVFFGGQEFRTGVVWNNNNPRWTDKMDFENVLLSTGGPLRVQVWDADYGWDDDLLGSCDRSPHSGFHEVTCELNHGRVKFSYHAKCLPHLTGGTCLEYAPQGLLGDPPGNRSGAVW
modifications: engineered disulphide bond between A144C and W373C
notes: perforin, mouse, with the engineered disulphide A144C-W373C that tethers TMH1 to the core of the MACPF domain; also called A144C-W373C perforin; source: baculovirus/insect cell system, purified from the supernatant
As to B1, the binding result is given as “binds”.
